In IntAct's records for PubMed 25416956:

B1: Lipopolysaccharide-induced tumor necrosis factor-alpha factor (Homo sapiens), Q99732 (parent)
chain: MSVPGPYQAATGPSSAPSAPPSYEETVAVNSYYPTPPAPMPGPTTGLVTGPDGKGMNPPSYYTQPAPIPNNNPITVQTVYVQHPITFLDRPIQMCCPSCNKMIVSQLSYNAGALTWLSCGSLCLLGCIAGCCFIPFCVDALQDVDHYCPNCRALLGTYKRL

Variants of: B1
Conditions: with hgs_human HGS
With A111G the “effect of a mutation on the interaction” value was “disrupting interaction”.

Variants of: B1
Conditions: with stam2_human STAM2, O75886
A111G was tested, and the “effect of a mutation on the interaction” value was “disrupting interaction”.

Variants of: B1
Conditions: with reep6_human REEP6, Q96HR9
Chain of reep6_human REEP6, Q96HR9 (Q96HR9 whole entry): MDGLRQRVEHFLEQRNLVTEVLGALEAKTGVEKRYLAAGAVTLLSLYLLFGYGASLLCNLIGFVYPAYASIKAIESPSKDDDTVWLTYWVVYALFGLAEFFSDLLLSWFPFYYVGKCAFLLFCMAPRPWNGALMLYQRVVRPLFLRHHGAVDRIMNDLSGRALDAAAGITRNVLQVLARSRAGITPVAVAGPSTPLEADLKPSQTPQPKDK
For A111G, the “effect of a mutation on the interaction” value was “disrupting interaction”.

Variants of: B1
Conditions: with UBQLN1, Q9UMX0-2
Chain of UBQLN1, Q9UMX0-2 (Q9UMX0 other isoform, or with tags, fused parts or gaps): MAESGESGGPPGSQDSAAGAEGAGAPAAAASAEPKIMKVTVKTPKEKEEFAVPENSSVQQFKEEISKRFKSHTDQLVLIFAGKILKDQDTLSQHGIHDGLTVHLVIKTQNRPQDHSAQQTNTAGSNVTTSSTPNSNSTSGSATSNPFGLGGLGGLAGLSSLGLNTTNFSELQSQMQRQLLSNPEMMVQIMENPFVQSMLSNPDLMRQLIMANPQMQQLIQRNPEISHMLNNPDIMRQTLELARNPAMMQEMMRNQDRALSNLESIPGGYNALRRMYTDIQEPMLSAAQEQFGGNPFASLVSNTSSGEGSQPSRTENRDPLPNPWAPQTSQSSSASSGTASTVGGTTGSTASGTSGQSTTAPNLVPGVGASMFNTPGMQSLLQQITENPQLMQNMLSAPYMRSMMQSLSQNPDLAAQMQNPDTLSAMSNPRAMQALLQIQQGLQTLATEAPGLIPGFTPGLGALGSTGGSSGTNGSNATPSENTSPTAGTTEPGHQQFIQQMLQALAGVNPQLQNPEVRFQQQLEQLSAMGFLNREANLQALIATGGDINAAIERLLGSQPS
A111G was tested, and the “effect of a mutation on the interaction” value was “disrupting interaction”.

Variants of: B1
Conditions: with ubql1_human UBQLN1, Q9UMX0
Chain of ubql1_human UBQLN1, Q9UMX0 (Q9UMX0 whole entry): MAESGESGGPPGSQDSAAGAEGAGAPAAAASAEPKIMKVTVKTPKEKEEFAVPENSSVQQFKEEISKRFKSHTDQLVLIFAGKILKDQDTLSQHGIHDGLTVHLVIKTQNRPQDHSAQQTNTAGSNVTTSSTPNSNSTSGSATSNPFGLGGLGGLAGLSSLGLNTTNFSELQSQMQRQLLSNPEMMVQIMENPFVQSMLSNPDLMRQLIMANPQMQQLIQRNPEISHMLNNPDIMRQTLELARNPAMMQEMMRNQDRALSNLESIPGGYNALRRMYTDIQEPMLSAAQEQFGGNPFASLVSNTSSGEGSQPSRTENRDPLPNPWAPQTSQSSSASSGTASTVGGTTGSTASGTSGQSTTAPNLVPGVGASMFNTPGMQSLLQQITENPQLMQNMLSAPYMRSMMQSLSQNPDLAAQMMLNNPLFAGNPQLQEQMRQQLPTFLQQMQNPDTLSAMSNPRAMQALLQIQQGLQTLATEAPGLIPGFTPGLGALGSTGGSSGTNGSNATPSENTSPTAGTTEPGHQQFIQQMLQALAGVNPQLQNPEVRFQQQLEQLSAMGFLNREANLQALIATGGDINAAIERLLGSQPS
With A111G the “effect of a mutation on the interaction” value was “disrupting interaction”.

Variants of: B1
Conditions: with hgs_human HGS
Remark: another data set of the same source
With G112S the “effect of a mutation on the interaction” value was “disrupting interaction”.

Variants of: B1
Conditions: with stam2_human STAM2, O75886
Remark: another data set of the same source
In the case of G112S, the “effect of a mutation on the interaction” value is reported as “disrupting interaction”.

Variants of: B1
Conditions: with reep6_human REEP6, Q96HR9
Remark: another data set of the same source
In the case of G112S, the “effect of a mutation on the interaction” value is reported as “disrupting interaction”.

Variants of: B1
Conditions: with UBQLN1, Q9UMX0-2
Remark: another data set of the same source
G112S was tested, and the “effect of a mutation on the interaction” value was “disrupting interaction”.

Variants of: B1
Conditions: with ubql1_human UBQLN1, Q9UMX0
Remark: another data set of the same source
With G112S the “effect of a mutation on the interaction” value was “disrupting interaction”.
